{"source": "patent US20040106557", "key": {"[1]": {"target": "insulin like growth factor-binding protein 3 (IGF-BP-3) (UniProt P17936)", "sequence (P17936 28-291)": "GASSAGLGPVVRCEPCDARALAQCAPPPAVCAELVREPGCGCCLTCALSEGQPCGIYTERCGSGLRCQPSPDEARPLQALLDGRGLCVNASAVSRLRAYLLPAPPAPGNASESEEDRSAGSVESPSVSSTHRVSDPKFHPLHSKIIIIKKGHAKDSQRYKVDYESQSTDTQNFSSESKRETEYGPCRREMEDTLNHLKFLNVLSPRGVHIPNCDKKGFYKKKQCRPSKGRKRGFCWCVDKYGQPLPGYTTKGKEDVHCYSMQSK"}, "[2]": {"tested_on": "GST-A-1 (peptide A-1 expressed as glutathione S-transferase fusion protein)"}, "[3]": {"tested_on": "chemically synthesized peptide C-4 without GA flanks (C-4-1, C4 parent)"}, "[4]": {"tested_on": "mercaptoethanol-reduced C4"}, "[5]": {"tested_on": "chemically synthesized peptide A-1 (A-1-1, A-1 parent)"}, "[6]": {"tested_on": "GST-B-2 (peptide B-2 expressed as glutathione S-transferase fusion protein)"}, "[7]": {"tested_on": "GST-C-4 (peptide C-4 expressed as glutathione S-transferase fusion protein)"}, "[8]": {"tested_on": "SKSKSKS-aca-CVAYCIEHHCWTC (SKSKSKS-tailed peptide C4)", "sequence (chain, as listed by the source)": "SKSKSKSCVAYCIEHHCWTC"}}, "note": "“Also recorded” adds a separate entry of the source.", "data": [{"substance": "Prostate specific antigen (PSA), purified from human seminal fluid", "values": [{"measurement": "PSA enzyme activity (A405) on substrate S-2586; PSA 0.33 µM, peptide in 30-fold molar excess", "setting": "Tc99m-labeled C4", "value": "C4-technetium-conjugate: rises to about 0.12 at 95 min, between unlabelled C4 (about 0.16) and the PSA control (about 0.095); wide error bars"}, {"measurement": "decrease in IGF-BP-3 immunoreactivity (IFMA) after 16 h at 37 °C", "setting": "[1]", "value": "PSA alone slowly cleaved IGF-BP-3 as revealed by an 30% decrease in immunoreactivity"}, {"measurement": "PSA enzyme activity (A405) on substrate S-2586; PSA 0.33 µM, peptide in 30-fold molar excess", "setting": "125I-labeled C4", "value": "125-iodinated C4: rises to about 0.048 at 58 min, little above PSA alone (about 0.040) and far under C4 (about 0.070)"}, {"measurement": "PSA activity against the chromogenic substrate S-2586 (A405)", "setting": "[2]", "value": "The enzyme activity of PSA was significantly enhanced by the GST-peptides"}, {"measurement": "PSA enzyme activity (A405) on substrate S-2586; PSA 0.33 µM", "setting": "[3]", "value": "Unlabelled C4: rises to about 0.16 at 95 min; PSA control about 0.095; also recorded: C4: rises to about 0.070 at 58 min; PSA alone about 0.040"}, {"measurement": "PSA enzyme activity (A405 nm) on substrate S-2586; PSA 0.33 µM, peptide in 30-fold molar excess", "setting": "[3]", "value": "non-tailed C4: rises linearly to about 0.063 at 65 min; PSA control about 0.021"}, {"measurement": "cleavage of IGF-BP-3 by PSA (IGF-BP-3 IFMA), 100-fold molar excess of peptide", "setting": "[3]", "value": "about 70% cleavage of IGF-BP-3"}, {"measurement": "PSA enzyme activity (A405) on substrate S-2586; PSA 0.33 µM", "setting": "[4]", "value": "mercaptoethanol-reduced C4: curve lies on that of the PSA control over the whole time, about 0.095 at 95 min: no enhancement"}, {"measurement": "cleavage of IGF-BP-3 by PSA (IGF-BP-3 IFMA), 100-fold molar excess of peptide", "setting": "[5]", "value": "about 70% cleavage of IGF-BP-3"}, {"measurement": "PSA activity against the chromogenic substrate S-2586 (A405)", "setting": "[6]", "value": "The enzyme activity of PSA was significantly enhanced by the GST-peptides"}, {"measurement": "PSA activity against the chromogenic substrate S-2586 (A405)", "setting": "[7]", "value": "stimulating PSA activity against the chromogenic substrate about 5-fold"}, {"measurement": "PSA enzyme activity (A405) on substrate S-2586; PSA 0.33 µM with 100 µL of C18 fractions of the Eu-labelling mixture of C4", "setting": "Eu-labelled C4-peptide", "value": "at 60 min fraction 27 reaches about 0.043, fraction 26 about 0.037, fraction 28 about 0.024; all other fractions and the PSA control lie together at about 0.006-0.011"}, {"measurement": "PSA enzyme activity (A405 nm) on substrate S-2586; PSA 0.33 µM, peptide in 30-fold molar excess", "setting": "[8]", "value": "SKSKSKS-tailed C4: rises linearly to about 0.060 at 65 min, just under non-tailed C4; PSA control about 0.021"}]}]}
